These results are taken from patent publication WO2012119989A2 (dated 2012).

The target of test [1] is T1, Cell adhesion molecule-1 (CADM1), human, on the cell surface (human) (UniProt Q9BY67).
T1 sequence (looked up): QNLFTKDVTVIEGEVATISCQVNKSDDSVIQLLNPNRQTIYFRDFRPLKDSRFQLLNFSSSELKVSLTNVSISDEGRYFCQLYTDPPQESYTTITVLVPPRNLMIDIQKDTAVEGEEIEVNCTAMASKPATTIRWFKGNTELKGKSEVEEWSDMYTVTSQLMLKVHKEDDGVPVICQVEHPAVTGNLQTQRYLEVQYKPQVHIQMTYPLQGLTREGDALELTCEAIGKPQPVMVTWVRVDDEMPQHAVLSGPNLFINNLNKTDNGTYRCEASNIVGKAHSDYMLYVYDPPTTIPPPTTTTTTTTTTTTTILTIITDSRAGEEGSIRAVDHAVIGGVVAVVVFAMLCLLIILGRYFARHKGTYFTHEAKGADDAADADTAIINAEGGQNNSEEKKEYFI
As to the kind of experiment: flow cytometry, DU145 cells.

For test [2], the target named is T2, CADM1 extracellular domain expressed by the CHO-Flpln CADM1 cell line (human) (UniProt Q9BY67).
T2 sequence: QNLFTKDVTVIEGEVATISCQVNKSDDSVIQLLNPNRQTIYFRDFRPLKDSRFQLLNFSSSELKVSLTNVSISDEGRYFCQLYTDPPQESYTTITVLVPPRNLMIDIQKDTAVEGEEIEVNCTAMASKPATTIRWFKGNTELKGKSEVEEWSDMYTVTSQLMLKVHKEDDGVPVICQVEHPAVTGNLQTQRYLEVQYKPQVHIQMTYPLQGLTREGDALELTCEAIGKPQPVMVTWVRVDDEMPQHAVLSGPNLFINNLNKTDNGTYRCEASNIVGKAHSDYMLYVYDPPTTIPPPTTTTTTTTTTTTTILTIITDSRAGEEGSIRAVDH
Description: flow cytometry, CHO-Flpln CADM1 cells.

For test [3], the target named is T1, Cell adhesion molecule-1 (CADM1), human, on the cell surface (human). Description: flow cytometry, LnCaP cells.
Test [4] shares this target. As to the kind of experiment: cell-based or functional assay.
Test [5] has the same target. Description: flow cytometry, DU145 prostate cancer cells, antibody 10ug/ml.
In test [6] the target is T3, Cell adhesion molecule-1 (CADM1), human, on the cell surface (human, UniProt Q9BY67 45-442).
T3 construct: whole, on cells; also called TSLC1; IGSF4
T3 sequence (looked up): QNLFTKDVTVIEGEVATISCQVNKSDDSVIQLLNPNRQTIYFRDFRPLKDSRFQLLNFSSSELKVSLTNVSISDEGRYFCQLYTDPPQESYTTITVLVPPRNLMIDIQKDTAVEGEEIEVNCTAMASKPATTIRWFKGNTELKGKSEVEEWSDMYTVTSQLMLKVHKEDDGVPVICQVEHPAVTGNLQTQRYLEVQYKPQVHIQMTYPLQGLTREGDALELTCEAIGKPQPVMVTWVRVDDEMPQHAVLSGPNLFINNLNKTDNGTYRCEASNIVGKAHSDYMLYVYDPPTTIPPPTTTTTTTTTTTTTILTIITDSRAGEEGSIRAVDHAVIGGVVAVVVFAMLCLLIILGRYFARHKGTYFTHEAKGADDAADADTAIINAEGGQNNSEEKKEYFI
As to the kind of experiment: flow cytometry titration, A375 melanoma cells, mouse IgG2a isotype.

The target of test [7] is T4, CADM2, human, on transfected CHO cells (human, UniProt Q8N3J6 25-435).
T4 construct: whole, on cells
T4 sequence (looked up): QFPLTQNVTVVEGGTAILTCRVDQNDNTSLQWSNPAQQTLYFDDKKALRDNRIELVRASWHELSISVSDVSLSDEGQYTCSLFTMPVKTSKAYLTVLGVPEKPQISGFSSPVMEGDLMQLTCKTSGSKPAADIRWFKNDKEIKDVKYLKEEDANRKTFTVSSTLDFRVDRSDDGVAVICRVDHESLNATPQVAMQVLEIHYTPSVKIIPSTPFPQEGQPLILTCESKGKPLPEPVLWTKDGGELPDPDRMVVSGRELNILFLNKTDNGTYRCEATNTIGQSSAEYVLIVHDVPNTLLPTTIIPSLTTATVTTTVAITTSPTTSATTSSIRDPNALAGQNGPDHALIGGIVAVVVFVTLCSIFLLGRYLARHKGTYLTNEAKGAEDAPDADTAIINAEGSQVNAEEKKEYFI
As to the kind of experiment: flow cytometry, CHO cells transiently transfected with CADM2.

Test [8] addresses T5, CADM3, human, on transfected CHO cells (human, UniProt Q8N126 25-398).
T5 construct: whole, on cells; also called CADSV13 (OCR)
T5 sequence (looked up): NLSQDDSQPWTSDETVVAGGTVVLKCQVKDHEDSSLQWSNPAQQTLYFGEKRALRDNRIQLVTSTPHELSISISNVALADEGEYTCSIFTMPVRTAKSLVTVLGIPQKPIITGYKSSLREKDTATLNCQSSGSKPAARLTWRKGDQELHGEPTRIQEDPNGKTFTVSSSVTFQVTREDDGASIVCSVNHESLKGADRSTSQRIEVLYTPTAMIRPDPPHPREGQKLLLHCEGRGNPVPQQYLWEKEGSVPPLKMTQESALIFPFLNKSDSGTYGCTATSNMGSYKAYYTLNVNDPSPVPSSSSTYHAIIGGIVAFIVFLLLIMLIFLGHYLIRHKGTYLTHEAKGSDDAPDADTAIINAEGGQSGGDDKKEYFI
Description: flow cytometry, CHO cells transiently transfected with CADM3.

Test [9] addresses T3, Cell adhesion molecule-1 (CADM1), …. Description: flow cytometry titration, A375 melanoma cells, human IgG1 isotype.
Test [10] deals with T6, CADM4, human, on transfected CHO cells (human, UniProt Q8NFZ8 21-388).
T6 construct: whole, on cells; also called CAD 4
T6 sequence (looked up): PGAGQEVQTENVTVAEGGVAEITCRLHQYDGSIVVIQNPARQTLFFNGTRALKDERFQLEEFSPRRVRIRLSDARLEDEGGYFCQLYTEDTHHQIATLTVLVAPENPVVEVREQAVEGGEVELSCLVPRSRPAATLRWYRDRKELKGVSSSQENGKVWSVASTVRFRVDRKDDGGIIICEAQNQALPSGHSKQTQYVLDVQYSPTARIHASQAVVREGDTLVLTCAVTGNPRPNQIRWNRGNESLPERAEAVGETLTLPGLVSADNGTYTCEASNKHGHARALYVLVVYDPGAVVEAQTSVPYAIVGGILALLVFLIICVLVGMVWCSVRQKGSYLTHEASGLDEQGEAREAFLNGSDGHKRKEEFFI
As to the kind of experiment: flow cytometry, CHO cells transiently transfected with CADM4.

Test [11] deals with T2, CADM1 extracellular domain expressed by the CHO-Flpln CADM1 cell line (human). Description: flow cytometry, CHO-Flpln CADM1 cells (second table of Example 15).
Test [12] deals with T3, Cell adhesion molecule-1 (CADM1), …. As to the kind of experiment: flow cytometry titration, SKOV3 ovary cancer cells.
In test [13] the target is T1, Cell adhesion molecule-1 (CADM1), human, on the cell surface (human). Description: flow cytometry, SW480 colon cancer cells, antibody 10ug/ml.
The target is the same in test [14]. Description: flow cytometry, LnCaP prostate cancer cells, antibody 10ug/ml.
Test [15] has the same target. Description: flow cytometry, LnCaP cells (second table of Example 15).
Test [16] shares this target. As to the kind of experiment: flow cytometry, SKMEL28 melanoma cells, antibody 10ug/ml.
Test [17] has the same target. Description: flow cytometry, Caco-2 colon cancer cells, antibody 10ug/ml.
Test [18] shares this target. As to the kind of experiment: flow cytometry, MDA-MB-435S melanoma cells, antibody 10ug/ml.
Test [19] shares this target. Description: flow cytometry, Lovo colon cancer cells, antibody 10ug/ml.

B1: Antibody-1 (antibody, V domains shown)
VH: EVQLLESGGGLVQPGGSLRLSCAASGFTFSFYPMQWVRQAPGKGLEWVSSIGSSGGYTKYADSVKGRFTISRDNSKNTLYLQMNSLRAEDTAVYYCTRDRWYFDLWGRGTL
VL: QSELTQDPAVSVALGHTVKITCQGDTFRTYYASWYQQKPGQAPLLVVYGENKRPSGIPDRFSGSTSGNTASLTITGAQAEDEADYYCHSRDNSGHLHVFGGGTKVTVL
In the case of B1, the percent of cells bound in test [1] was found to be 99%; in [2] it was 99.8%; in test [3], 99.6%. This molecule gave a % cell viability at 100 nM, Hum-ZAP assay, DU145 prostate cancer cells in [4] of 60.6%. In test [5], the % of fluorescence cells was 99%.

B2: anti-CADM1 AB-10, mouse IgG2a isotype (antibody, V domains shown)
VH: EVQLLESGGGLVQPGGSLRLSCAASGFTFSMYTMSWVRQAPGKGLEWVSSIWSSGGKTSYADSVKGRFTISRDNSKNTLYLQMNSLRAEDTAVYYCAKESWYFDLWGRGTL
VL: QYELTQDPAVSVALGQTVRITCQGHSLRSYYATWYQQKPGQAPVLVMYGENNRPSGIPDRFSGSSSGNTASLTITGAQAEDEADYYCNSRDNSGNHLVFGGGTNLTVL
notes: also called AB-10 mouse lgG2a
For the molecule B2, a half-maximal response in test [6] (EC50) required 0.76 nM.

B3: Antibody-10 (antibody, V domains shown)
VH: EVQLLESGGGLVQPGGSLRLSCAASGFTFSMYTMSWVRQAPGKGLEWVSSIWSSGGKTSYADSVKGRFTISRDNSKNTLYLQMNSLRAEDTAVYYCAKESWYFDLWGRGTL
VL: QYELTQDPAVSVALGQTVRITCQGHSLRSYYATWYQQKPGQAPVLVMYGENNRPSGIPDRFSGSSSGNTASLTITGAQAEDEADYYCNSRDNSGNHLVFGGGTNLTVL
notes: also called AB10; AB 1 0
On to B3, for which the figures for the percent of cells bound in test [2] and in test [11] were 99.8% and 98.7%, respectively. Moreover, the binding result in test [7], in [8] and in [10] was “no binding (tested: 10ug/ml (protocol of Example 19))” throughout. In addition, the midpoint of the response in test [9], the EC50, lay at 1.26 nM.

B4: Antibody-3 (antibody, V domains shown)
VH: EVQLLESGGGLVQPGGSLRLSCAASGFTFSRYPMYWVRQAPGKGLEWVSSISSSGGLTHYADSVKGRFTISRDNSKNTLYLQMNSLRAEDTAVYYCARGDWYFDLWGRGTL
VL: QYELTQDPAVSVALGQTVRITCQGDSLRTYYASWYQQRPGQAPVLVIYGDNDRPSGIPDRFSGSTSRNTASLTITGAQAEDEAHYYCNSRDSSGNHIFATGTKVTVL
notes: also called AB3; AB 3
In test [2], B4 displayed a percent of cells bound of 99.7%. Further, the binding result in test [7], in test [8] and in [10] was “no binding (tested: 10ug/ml (protocol of Example 19))” each time. In [12], this molecule had an EC50 of 1 nM.

B5: Antibody-2 (antibody, V domains shown)
VH: EVQLLESGGGLVQPGGSLRLSCAASGFTFSKYEMVWVRQAPGKGLEWVSYIVPSGGATLYADSVKGRFTISRDNSKNTLYLQMNSLRAEDTAVYYCARVKAGVFDYWGQGTL
VL: QYELTQPPSVSVSPGQTARITCSGDRLGETYVSWYQQKPGQSPVLVIFEDNKRPSGIPERFSGSNSGNTATLTVSGTRAMDEADYYCQAWVGSTPFVFGTGTKVTVL
On to B5, for which the percent of cells bound in [1] turned out to be 99.5%; in test [2] it was 99.9%; in test [3], 99.5%; in test [11], 98.3%; in test [15] it was 98.6%. The % of fluorescence cells amounted to 100% in test [13]; 98.6% in test [14]; 100% in test [16]; 99.6% in [17]; 99.5% in test [5]; 100% in [18]. Moreover, the % of fluorescence cells in test [19] was found to be 99.2%. This molecule yielded a % cell viability at 100 nM, Hum-ZAP assay, A375 melanoma cells in test [4] of 26.2%. Moreover, in test [4], the % cell viability at 100 nM, Hum-ZAP assay, Caco-2 colon cancer cells was 55.9%. This molecule displayed a % cell viability at 100 nM, Hum-ZAP assay, Lovo colon cancer cells in test [4] of 34.3%. For the same molecule, the % cell viability at 100 nM, Hum-ZAP assay, MDA-MB-435S melanoma cells in [4] was found to be 27.3%. In test [4], this molecule gave a % cell viability at 100 nM, Hum-ZAP assay, SKMEL28 melanoma cells of 36.7%. Moreover, the % cell viability at 100 nM, Hum-ZAP assay, SW480 colon cancer cells in test [4] is 20.6%. For the same molecule, the % of viability, Hum-ZAP internalization assay, positive CADM1 cell line, antibody 10-6 M in [4] is 85.1%. The % of viability, Hum-ZAP internalization assay, positive CADM1 cell line, antibody 10-7 M in test [4] amounted to 29.3%. In test [4], this molecule came in with a % of viability, Hum-ZAP internalization assay, positive CADM1 cell line, antibody 10-8 M of 14%.

B6: AB2 NF (antibody, V domains shown)
VH: EVQLLESGGGLVQPGGSLRLSCAASGFTFSKYEMVWVRQAPGKGLEWVSYIVPSGGATLYADSVKGRFTISRDNSKNTLYLQMNSLRAEDTAVYYCARVKAGVFDYWGQGTL
VL: QYELTQPPSVSVSPGQTARITCSGDRLGETYVSWYQQKPGQSPVLVIFEDNKRPSGIPERFSGSNSGNTATLTVSGTRAMDEADYYCQAWVGSTPFVFGTGTKVTVL
With B6, the values for the percent of cells bound in test [11] and in test [15] were 98.5% and 96.8%, respectively.
